Assay results published in article PMC4227774, “RppH-dependent pyrophosphohydrolysis of mRNAs is regulated by direct interaction with DapF in Escherichia coli” (Nucleic Acids Research, 2014).

B2: DapF, diaminopimelate (DAP) epimerase, purified (enzyme, E. coli, UniProt P0A6K1 1-274, looked up)
chain: MQFSKMHGLGNDFMVVDAVTQNVFFSPELIRRLADRHLGVGFDQLLVVEPPYDPELDFHYRIFNADGSEVAQCGNGARCFARFVRLKGLTNKRDIRVSTANGRMVLTVTDDDLVRVNMGEPNFEPSAVPFRANKAEKTYIMRAAEQTILCGVVSMGNPHCVIQVDDVDTAAVETLGPVLESHERFPERANIGFMQVVKREHIRLRVYERGAGETQACGSGACAAVAVGIQQGLLAEEVRVELPGGRLDIAWKGPGHPLYMTGPAVHVYDGFIHL
notes: DapF, diaminopimelate epimerase, E. coli; The text sets 'purified DapF' (untagged) against His-DapF in the pull-downs; also called purified DapF; untagged DapF; source: purified
B3: RppH, RNA pyrophosphohydrolase, purified (enzyme, E. coli, UniProt P0A776 1-176, looked up)
chain: MIDDDGYRPNVGIVICNRQGQVMWARRFGQHSWQFPQGGINPGESAEQAMYRELFEEVGLSRKDVRILASTRNWLRYKLPKRLVRWDTKPVCIGQKQKWFLLQLVSGDAEINMQTSSTPEFDGWRWVSYWYPVRQVVSFKRDVYRRVMKEFASVVMSLQENTPKPQNASAYRRKRG
notes: RppH (NudH), RNA pyrophosphohydrolase, E. coli; Named only 'RppH' in gel filtration, SPR and the activity assays; The methods describe only the purification of His-RppH, so this may be the same protein as m1; also called purified RppH; NudH; source: purified

Experiments:
[1] = target: T1, His-RppH co-expressed with DapF from pDuet-RD (E. coli, UniProt P0A776 1-176); assay: pull-down; DapF and His-RppH co-expressed from pDuet-RD in E. coli ER2566; crude extract loaded onto a TALON metal affinity column; SDS-PAGE; conditions: partners not purified
T1 construct: RppH (NudH), RNA pyrophosphohydrolase, E. coli; source: E. coli ER2566 harboring pDuet-RD (from the pET-duet vector), in crude extract
T1 sequence (looked up): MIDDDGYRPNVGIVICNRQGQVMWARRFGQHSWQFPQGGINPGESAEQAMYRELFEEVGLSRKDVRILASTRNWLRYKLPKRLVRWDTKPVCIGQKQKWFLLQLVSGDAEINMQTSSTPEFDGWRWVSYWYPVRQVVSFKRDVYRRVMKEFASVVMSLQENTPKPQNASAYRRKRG

[2] = target: T2, His6-RppH (6His-tagged form of RppH, RNA pyrophosphohydrolase) (E. coli, UniProt P0A776 1-176); assay: pull-down; purified DapF mixed with varying amounts of His-RppH or the control protein His-enzyme IIA^Ntr on the metal affinity resin; band intensities on gel; conditions: both partners purified
T2 construct: RppH (NudH), RNA pyrophosphohydrolase, E. coli; rppH gene amplified from MG1655 genomic DNA with primers at the ATG start codon and 20 bp downstream of the TAA stop codon; also called His-RppH; His-tagged RppH
T2 sequence (looked up): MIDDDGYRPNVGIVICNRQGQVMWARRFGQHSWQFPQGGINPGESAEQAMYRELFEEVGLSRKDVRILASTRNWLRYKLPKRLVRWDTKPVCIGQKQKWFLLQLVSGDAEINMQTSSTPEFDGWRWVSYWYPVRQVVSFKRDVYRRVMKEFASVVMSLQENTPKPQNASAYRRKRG

[3] = target: B3; assay: SEC; Superose 12 10/300 GL, 50 mM Tris-HCl pH 8.0, 100 mM NaCl, room temperature, 0.5 ml/min; 50 μg RppH, 400 μg DapF (or 100 μg DapF(C73&217A)) or both in 250 μl, incubated 10 min on ice; fractions on SDS-PAGE; conditions: both partners purified
[4] = target: the molecule itself; assay: as above
[5] = target: B2; assay: SPR; BIAcore 3000; RppH amine-coupled to a CM5 chip (0.7 ng/mm^2); DapF at 20, 50 and 70 μg/ml flowed at 10 μl/min; 10 mM HEPES pH 7.2, 150 mM NaCl, 10 mM KCl, 1 mM MgCl2, 0.5 mM EDTA; fit assumes a dimer–dimer interaction; conditions: both partners purified
[6] = target: T3, DapF(C73&217A) (E. coli, UniProt P0A6K1 1-274, C73&217A | C73&217A); assay: SEC; Superose 12 10/300 GL, 50 mM Tris-HCl pH 8.0, 100 mM NaCl, room temperature, 0.5 ml/min; 50 μg RppH, 400 μg DapF (or 100 μg DapF(C73&217A)) or both in 250 μl, incubated 10 min on ice; fractions on SDS-PAGE; conditions: both partners purified
T3 construct: DapF, diaminopimelate epimerase, E. coli; the two catalytic cysteines C73 and C217 substituted to alanine; The methods list His-DapF(C73&217A) among the purified proteins; results and legends call it DapF(C73&217A); also called His-DapF(C73&217A); mutant DapF
T3 sequence (looked up): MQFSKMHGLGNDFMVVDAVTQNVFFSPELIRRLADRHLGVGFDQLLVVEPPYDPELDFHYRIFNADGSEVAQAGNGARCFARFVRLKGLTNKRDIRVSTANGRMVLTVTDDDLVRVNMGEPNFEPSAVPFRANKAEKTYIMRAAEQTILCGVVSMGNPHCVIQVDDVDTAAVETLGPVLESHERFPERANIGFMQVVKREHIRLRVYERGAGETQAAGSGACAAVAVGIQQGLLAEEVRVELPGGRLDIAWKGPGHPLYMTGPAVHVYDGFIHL

B1: DapF co-expressed with His-RppH from pDuet-RD (enzyme, E. coli, UniProt P0A6K1 1-274, looked up)
chain: MQFSKMHGLGNDFMVVDAVTQNVFFSPELIRRLADRHLGVGFDQLLVVEPPYDPELDFHYRIFNADGSEVAQCGNGARCFARFVRLKGLTNKRDIRVSTANGRMVLTVTDDDLVRVNMGEPNFEPSAVPFRANKAEKTYIMRAAEQTILCGVVSMGNPHCVIQVDDVDTAAVETLGPVLESHERFPERANIGFMQVVKREHIRLRVYERGAGETQACGSGACAAVAVGIQQGLLAEEVRVELPGGRLDIAWKGPGHPLYMTGPAVHVYDGFIHL
notes: DapF, diaminopimelate epimerase, E. coli; source: E. coli ER2566 harboring pDuet-RD (from the pET-duet vector), in crude extract
stoichiometry N [1]: 1 DapF:RppH

B2
stoichiometry N [2]: 1 DapF:RppH | stoichiometry N [3]: 1 DapF:RppH (2:2) | stoichiometry N [4]: 2

B3
Kd [5]: ~5.2 nM | binding result [6]: binds
